Test results from article PMC6430473.

Target: T1, Clp (Xanthomonas campestris pv. campestris 8004) (UniProt Q4UZF6)
T1 sequence: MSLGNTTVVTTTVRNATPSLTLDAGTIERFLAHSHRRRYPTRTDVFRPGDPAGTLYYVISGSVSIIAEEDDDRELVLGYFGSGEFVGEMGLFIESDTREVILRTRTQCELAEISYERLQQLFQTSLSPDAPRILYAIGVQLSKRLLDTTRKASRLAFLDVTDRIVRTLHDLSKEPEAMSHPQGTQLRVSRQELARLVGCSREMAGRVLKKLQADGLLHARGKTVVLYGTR
Experiment: EMSA

In the case of “CATGGTGATCTCCCTAGAGAACCGGGCTCGACACCCGAGCGCGGTAAGGCGGGCATCTTGGTCTGTGCGCGCGTCGCGTGGTGTGATCGTCCCCACAGAAAAC (double strand) [P-56/+47]”, the binding is reported as “binds”.

“AGCTGAAGGCCGGCCCGGCGGCCAGTGCGAGGGCGGTGGCCAAAGCGAGCGTGCTTGCGGTCCTGAATATGGACATGGTGATCTCCCTAGAGAACCGGGCTCGACACCCGAGCGCGGTAAGGCGGGCATCTTGGTCTGTGCGCGCGTCGCGTGGTG (double strand) [P-36/+120 (text: P-36/+100)]” was tested, and the binding was “no binding”.
